Biological target: human TIM-3 protein (coated on ELISA plates) (human) (UniProt Q8TDQ0)
Assay: competition ELISA on plate-coated human TIM-3 against biotinylated WBP340-BMK8 (self-competition), detection with SA-HRP

B1: WBP340-BMK8 (antibody, from another filing, human IgG4, V domains shown)
VH: QVQLVQSGAEVKKPGSSVKVSCKASGYTFTSYNMHWVRQAPGQGLEWMGDIYPGNGDTSYNQKFKGRVTITADKSTSTVYMELSSLRSEDTAVYYCARVGGAFPMDYWGQGTTVTVSS
VL: AIQLTQSPSSLSASVGDRVTITCRASESVEYYGTSLMQWYQQKPGKAPKLLIYAASNVESGVPSRFSGSGSGTDFTLTISSLQPEDFATYFCQQSRKDPSTFGGGTKVEIKR
Question: How did the IC50 (read off the curve) turn out when B1 was run?
Answer: The IC50 (read off the curve) was 2 nM.

Source: patent US20210340252A1
